The target in test [1] is Cys^6-antag: secretin antagonist (c[E^16, K^20], Y^10, I^17, Cha^22, R^25)sec(5–27) with cysteine in position 6. Kind of test: cysteine trapping with 125I-labeled probe, SDS-PAGE autoradiography densitometry. The conditions noted are these: SecR cysteine replacement mutants transiently expressed in COS-1 cells; nonreducing conditions; three experiments; read off a plot.
In test [2] the target is Cys^5-antag: secretin antagonist (c[E^16, K^20], Y^10, I^17, Cha^22, R^25)sec(5–27) with cysteine in position 5. The test is described as above. The conditions noted are these: SecR cysteine replacement mutants transiently expressed in COS-1 cells; nonreducing conditions; three experiments; read off a plot.

On to “wild-type human secretin receptor, on COS-1 cells (from UniProt P47872) A359C”, for which the response (% of maximal signal within this loop) in test [1] stood at 98; in test [2] it was 88.
As for “wild-type human secretin receptor, on COS-1 cells (from UniProt P47872) A365C”, the response (% of maximal signal within this loop) turned out to be 37 in test [1] and 22 in test [2].
Consider “wild-type human secretin receptor, on COS-1 cells (from UniProt P47872) D364C”, for which the response (% of maximal signal within this loop) was determined as 33 in test [1] and 22 in test [2].
On the same counts, the results for “wild-type human secretin receptor, on COS-1 cells (from UniProt P47872) E363C” are 21 and 22.
For the substance “wild-type human secretin receptor, on COS-1 cells (from UniProt P47872) E367C”, the response (% of maximal signal within this loop) in test [1] turned out to be 12; in test [2], 4.
As for “wild-type human secretin receptor, on COS-1 cells (from UniProt P47872) E373C”, the response (% of maximal signal within this loop) in test [1] is 62; in test [2], 28.
For the substance “wild-type human secretin receptor, on COS-1 cells (from UniProt P47872) F358C”, the response (% of maximal signal within this loop) in test [1] came out at 93; in test [2], 75.
The like results for “wild-type human secretin receptor, on COS-1 cells (from UniProt P47872) F360C” were, in that order, 70 and 63.
As to “wild-type human secretin receptor, on COS-1 cells (from UniProt P47872) F371C”, the response (% of maximal signal within this loop) in test [1] came out at 40; in test [2] it was 22.
With “wild-type human secretin receptor, on COS-1 cells (from UniProt P47872) F372C”, the response (% of maximal signal within this loop) in test [1] is 46; in test [2], 28.
Consider “wild-type human secretin receptor, on COS-1 cells (from UniProt P47872) I368C”, for which the response (% of maximal signal within this loop) came out at 20 in test [1] and 12 in test [2].
The like results for “wild-type human secretin receptor, on COS-1 cells (from UniProt P47872) L370C” were, in that order, 43 and 19.
Take “wild-type human secretin receptor, on COS-1 cells (from UniProt P47872) L374C”: the response (% of maximal signal within this loop) in test [1] worked out at 88; in test [2], 35.
In the case of “wild-type human secretin receptor, on COS-1 cells (from UniProt P47872) M366C”, the figures for the response (% of maximal signal within this loop) in test [1] and in test [2] were 35 and 18, respectively.
As for “wild-type human secretin receptor, on COS-1 cells (from UniProt P47872) P362C”, the response (% of maximal signal within this loop) in test [1] turned out to be 40; in test [2], 30.
For “wild-type human secretin receptor, on COS-1 cells (from UniProt P47872) Q369C”, the values for the response (% of maximal signal within this loop) in test [1] and in test [2] were 41 and 14, respectively.
Regarding “wild-type human secretin receptor, on COS-1 cells (from UniProt P47872) S361C”, the response (% of maximal signal within this loop) in test [1] amounted to 80; in test [2], 87.
